Laboratory results as given in the RNAGym collection of RNA variant scans (doi:10.7554/elife.80360).

B1: HDV Ribozyme (parent)
chain: GGCCGGCAUGGUCCCAGCCUCCUCGCUGGCGCCGGCUGGGCAACAUUCCGAGGGGACCGUCCCCUCGGUAAUGGCGAAUGGGACCCA

Variants of: B1
Test: self-cleavage, relative activity (ratio to wild type); higher = more cleavage; co-transcriptional

Variant | self-cleavage
U37A A70C | 0.0639
U37A A70U | 0.196
G35U G59A | 0.415
G35U G59C | 0.7
C36G U72A | 0.138
C36G U72C | 0.0462
C36U G80U | 0.224
U37A A51C | 0.217
C36U G76U | 1.05
C36U G76C | 0.909
C36U A70G | 0.969
C36U A70C | 0.849
G35U U79G | 0.0426
G35U U79C | 0.0992
G35U C44A | 0
G35U C44G | 0.0755
C36A A71C | 0.0573
C36A A71U | 0.309
C36A A71G | 0.0405
C36A G67U | 0.155
C36A G67A | 0.126
C36A G67C | 0.208
C36G C64A | 0.259
C36A G74A | 0

Variant | self-cleavage
C36A G74C | 0.0997
C36A G74U | 0.14
C36A U65A | 0.163
C36A U65C | 0.095
C36G C66G | 0.237
C36G A56C | 0.158
C36G A56G | 0.0594
C36G A56U | 0.111
G35U C66U | 0.459
G35U G76A | 0.404
G35U G67U | 0.391
C36G G50C | 0.0437
C36G G50A | 0.109
C36A A42U | 0.122
C36G C44G | 0
C36G C49G | 0.0773
C36G C49U | 0.0811
G35U U47A | 0.332
G35U C63A | 0.389
C36U C61U | 0.726
C36U C61A | 0.831
C36U C61G | 0.466
C36U U46C | 0.481
C36G A70C | 0

Variant | self-cleavage
C36A C75G | 0.154
G35U G53U | 0.288
C36G C57G | 0.162
C36G C57A | 0.177
C36G C63U | 0.213
C36A C84A | 0.192
C36U U72A | 0.324
G35U G40C | 0.136
C36U | 0.744
C36A | 0.147
C36G | 0.13
C36A U46A | 0.244
G35U | 0.454
C36A A56G | 0.145
G35U U60C | 0.317
G35U U60A | 0.415
C36U A78C | 0.173
C36U A78U | 0.154
C36U A51U | 0.743
C36U A51C | 0.665
C36U C85A | 0.732
C36U C85G | 0.799
C36U C85U | 0.88
C36A U69A | 0.0755

Variant | self-cleavage
C36A U69C | 0.0426
C36U G54U | 0.796
C36G A42G | 0.147
C36G A42C | 0.0811
C36G A42U | 0.113
C36U G55C | 0.789
G35U G38A | 0.0702
G35U A43G | 0.185
G35U A43U | 0.282
C36A C58U | 0.222
C36A C58G | 0.119
C36A C58A | 0.227
G35U C75U | 0.095
G35U C75A | 0.138
G35U C75G | 0.0378
C36U U65G | 0.582
C36U U65C | 0.712
C36U U65A | 0.665
C36G G38C | 0.208
C36U A45U | 0.658
C36U A45C | 0.0426
G35U G80C | 0.0567
G35U G80A | 0.101
C36A G81C | 0.102

Variant | self-cleavage
C36A G81A | 0.138
C36G C41G | 0.151
G35U C49A | 0.499
C36U G81A | 0.24
C36G G55C | 0.0314
C36G G55U | 0.032
G35U G73U | 0.19
C36G G73U | 0.0326
C36G A78C | 0.161
C36A A77C | 0.259
C36A A77U | 0.217
C36U C66U | 0.741
C36U C66A | 0.712
C36A G38C | 0.0415
C36A G38U | 0.189
C36A G38A | 0.0845
C36G A87G | 0.138
C36G A87U | 0.153
C36U C44U | 0.197
C36U C44A | 0.166
G35U G55U | 0.508
C36G G74A | 0.0779
C36U G67C | 0.831
C36A G80A | 0.12

Variant | self-cleavage
C36A C63U | 0.177
C36A C63G | 0.208
G35U G50A | 0.472
G35U G50U | 0.426
G35U G50C | 0.443
C36U G53U | 0.852
C36A U47C | 0.0519
C36A U47G | 0.208
C36A A78G | 0.0652
C36A A78U | 0
C36A A78C | 0.155
C36U C58U | 0.866
C36U C58A | 0.964
C36U U69A | 0.627
U37A A45G | 0.125
G35U C36U | 0.101
G35U C36A | 0.0831
C36G C48A | 0.272
C36G C48U | 0.231
G35U A77U | 0.175
G35U U72G | 0.151
C36U G74U | 0.191
G35U C62A | 0.261
G35U C62U | 0.486

Variant | self-cleavage
C36U C49A | 0.795
C36A G54C | 0.241
C36U G73C | 0.161
C36A G73U | 0.0583
C36A G73A | 0.104
C36U G68C | 0.563
C36U G68A | 0.626
C36G G80C | 0.108
C36G G80A | 0.0382
C36G G80U | 0.0507
C36A U37A | 0.0831
C36A U37G | 0.256
C36A U37C | 0.489
C36A G40C | 0.102
C36A G40U | 0.161
C36A G40A | 0.234
C36U C62G | 0.222
C36U C62U | 0.911
C36U C48U | 0.746
C36A G82C | 0.112
C36G G53A | 0.0959
C36G G53U | 0.148
C36U A77G | 0.475
C36U A77C | 0.145

Variant | self-cleavage
C36U A77U | 0.224
U37A A56U | 0.332
U37A A56G | 0.107
U37A A56C | 0.229
C36A C48U | 0.116
C36A U79G | 0.175
C36A U79A | 0.0615
C36U G38C | 0.113
C36U G38U | 0.147
C36U A87U | 0.769
C36U A87C | 0.778
G35U G68A | 0.351
C36U C84A | 0.489
C36U C84G | 0.324
C36U C84U | 0.716
C36G G39U | 0.0652
G35C U72C | 0.156
G35C U72G | 0.346
C36G G76C | 0.0692
C36A C44G | 0.125
U37A A77C | 0.0426
U37A A77G | 0.415
U37A A77U | 0.104
C36U C41U | 0.602

Variant | self-cleavage
C36A G76U | 0.119
G35U G39U | 0.0941
C36U C86U | 0.712
C36G C58A | 0.201
C36G C58U | 0.128
C36G C58G | 0.0594
C36U A56C | 0.888
G35U C84G | 0.185
G35U C84U | 0.343
C36A G55A | 0.188
G35U C48G | 0.312
G35U C48A | 0.49
C36A C66U | 0.134
C36A C66G | 0.177
U37A A42G | 0.0665
C36G A43C | 0.166
C36G A43G | 0.0519
C36G G59A | 0.169
C36G G81A | 0.0545
C36G G81U | 0.114
C36G G82C | 0.141
C36U A43U | 0.095
C36U A43C | 0
G35U A56G | 0.393

Variant | self-cleavage
G35U A56C | 0.358
G35U A56U | 0.62
C36A U60A | 0.198
C36A U60C | 0.166
G35U A51U | 0.471
C36U U60A | 0.727
C36U U60C | 0.959
C36U U60G | 0.508
C36U G40A | 0.831
C36U G40U | 0.602
C36A A43U | 0.198
C36A A43C | 0.095
C36A C49A | 0.0554
C36A C49U | 0.116
G35U C58A | 0.554
G35U C58U | 0.249
C36A C62U | 0.175
C36A C62A | 0.261
C36A C85G | 0.18
C36A C85A | 0.457
C36A G39U | 0.0906
C36A A70C | 0.128
C36U U37C | 0.867
C36A A87C | 0.147

Variant | self-cleavage
C36A A87U | 0.0587
C36A G59A | 0.164
G35U U46C | 0.0415
C36G C86A | 0.181
C36G C86G | 0.119
U37A A71G | 0.128
C36A A83U | 0.0219
C36G C62G | 0.142
G35U G54U | 0.448
C36G G52U | 0.14
C36U A83G | 0.56
C36U A83C | 0.185
C36G U65A | 0.244
C36A C61U | 0.138
C36A C61A | 0.0536
G35U G52U | 0.459
G35U G52A | 0.483
C36G A51U | 0.0519
C36G A51C | 0.0665
C36G G54U | 0.166
C36G U47A | 0.177
C36U C75G | 0.0959
C36A C64G | 0.0652
C36A C64A | 0.0405

Variant | self-cleavage
C36U U47G | 0.665
C36U U47C | 0.467
G35U C64A | 0.351
G35U C64G | 0.403
C36U U79G | 0.325
C36G A77G | 0.0791
G35U C57A | 0.517
G35U C57G | 0.415
G35U C57U | 0.538
G35U U69C | 0.253
G35U U69G | 0.302
G35U A71G | 0.308
G35U A71C | 0.237
G35U A71U | 0.178
C36G C75G | 0.0773
C36G C75U | 0.233
C36G C75A | 0.151
C36U G59U | 0.806
C36A C57G | 0.0898
C36A C57A | 0.297
C36U A42U | 0.208
G35C U79C | 0.132
G35C U79A | 0.122
C36A A45C | 0

Variant | self-cleavage
C36A A45G | 0.256
G35U U37G | 0.095
G35U U37C | 0.428
G35U U37A | 0.155
C36G A83U | 0.113
C36G C84U | 0.0755
C36G C84A | 0.0773
C36G C84G | 0.116
C36G U60C | 0.237
C36G U60A | 0.0405
C36G G40A | 0.157
C36G G40C | 0.185
C36G G40U | 0.108
G35U G82U | 0.162
G35U G82C | 0.161
C36U G52A | 0.785
C36U G52C | 0.779
C36A G50U | 0.0923
C36A G50A | 0.151
C36A C86G | 0.325
C36A C86U | 0.17
G35U A87U | 0.451
C36A C41U | 0.171
C36A C41A | 0.102

Variant | self-cleavage
C36A C41G | 0.18
C36G U79A | 0.095
C36G U79C | 0.154
C36A G52C | 0.138
C36A G52A | 0.158
C36A G52U | 0.14
C36G U46A | 0.415
G35U C85U | 0.623
C36U C64A | 0.482
C36U C57A | 0.816
G35U A78G | 0.0723
C36U C63A | 0.534
C36U C63G | 0.493
C36U A71C | 0.408
C36U G82C | 0.269
C36U G82U | 0.234
C36U G82A | 0.327
C36A G53C | 0.0277
C36A G53U | 0.19
C36A G53A | 0.218
G35U A70C | 0.354
G35U A45G | 0.365
